Source: paper PMC9338584 (2022)

Biological target: recombinant lamprey tumor necrosis factor receptor (rL-TNFR) (lamprey)
Assay: SPR

B1: recombinant Lr-PGRN-S1 (Lethenteron reissneri short-form progranulin S1) (natural protein)
chain: MGAVFSLGLSKEAIAMALPRPLMFVLVAAGLCALVSADRCPDGRFCVSRCCWKFTQYTCCWAGEGEGQGETQGELATVPAQAISATVSKVSSCAGSVCSANGESRCCPLSEGSCCGDGLSCCGKGSTCTTFRGLNLCLPHAEFQDPVATFLSREQQQHQQGGCVDDSGCPAGSECHVASGDHRGQCVSSDALIPWVEKEAALSGAVGAQVVYCGSGQYCRDGQTCCRLATGSWGCCNIPHAICCSDGIHCCPTGHFCLTASGLCARSTLSLPAVEGV
Q: For B1, which Kd is on record?
A: Its Kd is 337 nM.
